In this experiment the target is A-beta42 Monomer (human). Nature of the experiment: SPR direct binding (MASS-1), hybridoma supernatant over immobilized antigen.
Sequence of A-beta42 Monomer (human) (peptide, as listed by the source): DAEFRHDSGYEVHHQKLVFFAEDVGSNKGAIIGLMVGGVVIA

B1: 301-12G11 (17) (antibody, V domains shown)
VH: QVQLQQPGAELVKPGASVKMSCKASGYSFTSYWINWVKQRPGQGLEWIGDVHPGRGVSTYNAKFKSKATLTLDTSSSTAYMQLSSLTSEDSAVYYCSRSHGNTYWFFDVWGAGTTVTVSS
VL: DVLMTQTPLSLPVSLGDQASISCRSSQSIVHSNGNTYLEWYLQKPGQSPKLLIYKVSNRFSGVPDRFSGSGSGTDFTLKISRVEAEDLGVYYCFQGSHVPFTFGSGTKLEIKR
B1 registered a response units (RU) of 46 RU.

Source of the values: patent US20210087244A1.
